The Human Domainome abundance scans (Beltran et al. 2025)

B1: Tripartite motif-containing protein 44, residues 174 to 218; numbered along this chain, Q96DX7 (parent)
chain: VAKRKCPDHGLDLSTYCQEDRQLICVLCPVIGAHQGHQLSTLDEA

Variants of: B1
Assay: abundance fitness (aPCA) (normalised: wild type 0, dead -1); higher = more abundant; growth selection in yeast, the domain comes from the species named
Settings: Homo sapiens

Abundance fitness: each site, then its substitutions
Q35: G -0.152 | M -0.031 | N -0.092 | I -0.045 | D -0.143 | L -0.105 | S -0.063 | F -0.162 | A -0.054 | W -0.186 | K 0.002 | C -0.089 | V -0.035 | R -0.1 | H 0.008 | Y -0.067 | T -0.037 | E -0.021
A45: I 0.168 | C -0.058 | K -0.046 | D 0.002 | Q 0.044 | R -0.006 | E -0.096 | M -0.029 | P 0.004 | L -0.093
C28: Y -0.919 | T -0.982 | M -1.07 | N -0.759 | L -1.12 | F -0.791 | E -0.704 | H -0.994 | D -0.557 | K -0.744 | R -1 | P -0.882 | I -1.09 | W -1.14 | A -0.897 | V -1.06
G32: I -0.757 | R -0.492 | W -0.778 | S -0.393 | Y -0.743 | H -0.49 | L -0.775 | A -0.425 | P -0.22 | F -0.871 | D -0.417 | C -0.575 | N -0.465 | K -0.261 | Q -0.491 | E -0.355 | M -0.663 | V -0.674
V30: E 0.013 | S 0.005 | T 0.051 | C -0.073 | F -0.133 | N -0.057 | I -0.032 | R 0.019 | D 0.001 | L -0.076 | K 0.096 | P -0.369 | M -0.008 | A -0.011 | W -0.159 | G -0.144 | H -0.046 | Q 0.045
D43: P 0 | I -0.132 | M -0.072 | R -0.072 | C -0.042 | W -0.211 | S -0.026 | K -0.073 | V -0.056 | H -0.058 | N -0.026 | A -0.036 | L -0.107 | Q -0.035 | Y -0.112 | G -0.013 | E 0.023 | T -0.042 | F -0.157
L39: P -0.032 | W -0.035 | M 0.028 | Y -0.129 | K -0.06 | C -0.06 | F -0.026 | A -0.02 | E -0.021 | S -0.021 | T 0.019 | Q 0.033 | H 0.011 | D -0.025 | I -0.024 | N -0.043 | V -0.019 | R -0.011 | G -0.041
I31: D 0.062 | T 0.052 | S 0.097 | F -0.11 | W -0.13 | Q 0.028 | K 0.067 | A 0.022 | L -0.02 | G -0.002 | C -0.103 | M 0.016 | V 0.032 | P -0.306 | N 0.059 | Y -0.077 | H 0.029 | E 0.053 | R 0.003
H34: R -0.653 | T -0.665 | W -0.895 | G -0.65 | Y -0.665 | Q -0.605 | D -0.575 | P -0.701 | F -0.776 | E -0.647 | C -0.107 | L -0.925 | A -0.673 | I -0.717 | S -0.689 | K -0.634 | V -0.802
V26: N 0.062 | R 0.082 | P 0.029 | T 0.054 | W -0.065 | Q 0.074 | Y -0.041 | L -0.025 | M -0.011 | S 0.084
A33: D -0.068 | W -0.148 | H -0.031 | N -0.014 | E -0.032 | K -0.006 | S 0.019 | C -0.048 | Y -0.094 | L -0.079 | I -0.031 | V -0.05
H37: C -0.055 | Y -0.849 | L -0.839 | N -0.584 | Q -0.599 | R -0.677 | W -0.95 | K -0.606 | D -0.589 | I -1.01 | F -0.931 | S -0.678 | P -0.588 | E -0.565 | A -0.679 | M -0.676
L42: G 0.05 | R 0.024 | S 0.033 | C 0.014 | A 0.045 | V 0.023 | M -0.003 | D 0.028 | K 0.043 | N 0.002 | W -0.034 | Y 0.017 | H 0.056 | F -0.031 | P 0.027 | E 0.035 | Q 0.048 | T 0.068
Q38: R -0.006 | M 0 | N 0.029 | F -0.079 | D 0.036 | C -0.051 | W -0.255 | L -0.061 | G -0.009 | E 0.007 | I -0.045 | A -0.032 | P -0.03 | H 0.024 | V -0.071 | Y -0.145 | T 0.039 | K 0.03
S40: H 0.022 | P -0.044 | C -0.027 | I -0.079 | A -0.008 | T -0.066 | R -0.033 | L -0.084 | V -0.083 | K -0.041 | M -0.103 | E -0.012 | W -0.177 | N -0.118 | F -0.108 | G 0.015 | Q 0.012 | D -0.032
L27: V -0.151 | S -0.024 | W -0.216 | R 0.024 | G -0.25 | Y -0.059 | T -0.212 | N 0.055 | I -0.119 | C -0.283 | E 0.063 | M 0.039 | P -0.624 | H -0.069 | Q 0.127 | F -0.137
E44: G -0.002 | K -0.056 | Q -0.031 | I -0.132 | N -0.014 | W -0.14 | C -0.055 | V -0.065 | S -0.01 | A 0.009 | T 0.014 | D -0.053 | R -0.032 | M -0.058 | F -0.123 | L -0.082 | Y -0.232 | H 0.102
G36: P -0.561 | A -0.131 | N -0.007 | F -0.193 | I -0.623 | W -0.409 | K -0.128 | S -0.117 | R -0.158 | Y -0.363 | H -0.033 | Q -0.088 | C -0.172 | D -0.071 | M -0.245 | E -0.048 | V -0.519 | L -0.266
T41: S 0.032 | N 0.009 | D 0.016 | L -0.087 | C -0.029 | E 0.02 | M -0.065 | Y -0.098 | Q 0.011 | A 0.024 | I -0.11 | F -0.254 | H -0.102 | P 0.003 | W -0.131 | G 0.009 | V -0.038
P29: E -0.031 | W -0.207 | Q -0.071 | R -0.054 | M -0.04 | I -0.168 | S 0.012 | Y -0.098 | L -0.117 | V -0.133 | G -0.083 | D -0.077 | H -0.016 | F -0.198 | N -0.064 | C -0.2 | K -0.004 | A -0.097 | T -0.021
